Target: mini-SaCas9-3 with four tandem repeats of SpyTag fused to its C-terminal (Streptococcus pyogenes)
Test: cell-based or functional assay

## SpyCatcher:VPR
  expression of the enhanced blue fluorescent protein 2 (EBFP2) reporter gene compared to the negative control: 100 fold

From patent US11674128
